Experimental findings from paper PMC12554370, “MdMAPK6-mediated phosphorylation of MdWRKY9 regulates apple fruit ripening through interaction with MdERF5L” are described below.

Substitutions are numbered along the chain they refer to.

For data set [1], the target named is T1, MdERF5L (Malus domestica, UniProt A0A498JN73 1-332). Nature of the data set: EMSA; cold probe competes; LightShift Chemiluminescent EMSA kit (Thermo), per manufacturer's protocol; buffer, salt, pH and temperature not stated. The settings on record: protein: recombinant; tags: GST (pGEX-4T-1); label: biotin (hot probe); blunt.
The target of data set [2] is T1, MdERF5L. Description: EMSA; mutations disrupted binding; LightShift Chemiluminescent EMSA kit (Thermo), per manufacturer's protocol; buffer, salt, pH and temperature not stated. The settings on record: protein: recombinant; tags: GST (pGEX-4T-1); blunt. In general terms: Mobility shift assays separate free from complexed probe on a gel.
Another data set has as its target MdWRKY9 (Malus domestica, UniProt D9ZJG3 1-520). Nature of the data set: EMSA; LightShift Chemiluminescent EMSA kit (Thermo), per manufacturer's protocol; buffer, salt, pH and temperature not stated. The settings on record: protein: recombinant; tags: GST (pGEX-4T-1) or His (pET-32a); label: biotin (hot probe); blunt.

T1 sequence (A0A498JN73 entry or part of it): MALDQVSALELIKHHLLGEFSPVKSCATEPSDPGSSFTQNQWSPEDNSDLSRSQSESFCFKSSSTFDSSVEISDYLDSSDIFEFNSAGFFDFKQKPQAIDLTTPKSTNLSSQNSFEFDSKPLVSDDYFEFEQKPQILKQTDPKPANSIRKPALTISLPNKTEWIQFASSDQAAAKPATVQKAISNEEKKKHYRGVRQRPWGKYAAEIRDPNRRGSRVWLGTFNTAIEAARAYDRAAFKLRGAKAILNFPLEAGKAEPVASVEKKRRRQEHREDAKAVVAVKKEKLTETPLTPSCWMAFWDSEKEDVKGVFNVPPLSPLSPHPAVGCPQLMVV
MdWRKY9, sequence (D9ZJG3 entry or part of it): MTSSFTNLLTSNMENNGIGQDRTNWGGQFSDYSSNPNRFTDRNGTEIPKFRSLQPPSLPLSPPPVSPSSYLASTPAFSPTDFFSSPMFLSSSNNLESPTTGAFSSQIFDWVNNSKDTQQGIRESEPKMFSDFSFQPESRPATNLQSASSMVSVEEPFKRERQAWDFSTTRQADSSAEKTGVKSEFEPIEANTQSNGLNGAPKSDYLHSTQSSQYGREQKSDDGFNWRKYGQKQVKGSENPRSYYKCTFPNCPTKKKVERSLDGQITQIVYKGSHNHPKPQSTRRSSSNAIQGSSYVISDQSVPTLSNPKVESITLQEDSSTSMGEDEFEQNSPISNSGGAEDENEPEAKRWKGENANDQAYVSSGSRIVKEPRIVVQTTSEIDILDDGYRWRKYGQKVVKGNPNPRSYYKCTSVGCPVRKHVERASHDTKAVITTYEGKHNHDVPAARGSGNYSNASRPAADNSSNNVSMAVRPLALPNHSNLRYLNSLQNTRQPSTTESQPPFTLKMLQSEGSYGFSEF

B1: MdACS1-DRE probe (dsDNA)
DNA 1: AAAATAGAGGAGAAAAATGGCCGACAAAATTTGTTGTGGCTACTA
DNA 2: TAGTAGCCACAACAAATTTTGTCGGCCATTTTTCTCCTCTATTTT
Take B1: the binding result with MdERF5L [1] is given as “binds”.

B2: MdACS1-DRE mutant probe (dsDNA)
DNA 1: B1 DNA 1 with C21T, G23T, C25G
DNA 2: B1 DNA 2 with G21C, C23A, G25A
For B2, the binding result with MdERF5L [2] was “no binding”.

B3: MdERF5L-W-box probe (dsDNA)
DNA 1: AATTTGTATATCGTTTTCTGGGTCAATGATACGTTTTTTTATATTA
DNA 2: TAATATAAAAAAACGTATCATTGACCCAGAAAACGATATACAAATT
For the molecule B3, the binding result in the data set with MdWRKY9 is given as “binds”.
